This assay deals with human CD28 in its native form displayed on the cell surface (human) (UniProt P10747). In words: cell-based or functional assay.

The results in this text go back to patent US20260201039A1.

On to TGN1412 (IgG4) (antibody), for which the IL2 secretion, PBMC of 20 donors on plate-coated protein, 72 h is under 80000 pg/mL.
